Measured values published in the domain aggregation screens of Martell et al. (2025).

Experiment: soluble fraction after stress (log2 fold change); higher = more stays soluble; pooled small domains, quantitative proteomics
Details: stress: 50 degC
Method in brief: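 Pooled custom libraries of small protein domains were each held under stress at 50°C. The read-out, high-throughput quantitative proteomics, tracked how much of each protein stayed soluble. This is reported as a base-two log fold change used to indicate aggregation propensity. Higher values mean more protein remains in solution.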

| Sequence | soluble fraction (log2) |
| --- | --- |
| HMSVSATQMDAFVRQLRARLSSADGLDDAARLVRQDLEPFLGRFSDETERDFAAAIEQVRGSIRPVEI | 0.0229 |
| HMSVSEAELAEKYHADDLEALKSGKLHEFQENLIDRNGKKYTVQTMKDILTLSDGTRLLLGIGLD | 0.174 |
| HMSVTDDQLRVFTNKSGTKIKAKIVEVSDDKVKLIRDDNKKFIVPINSLSEEDQDYLRDWVSNEAVEP | 0.0333 |
| HMSVTIDAGGKVYLQESEIADDQLVPRLVAISNNGYDKPIYLRADKTVGYGRVAEVMSLLNAAGFTKLVLV | -0.0288 |
| HMSVTRELMLVKVKVTPEQRAGVSAIVDIFRANIIDVGKESMIIELTGNKSKLEAFIDLLDGYEILELART | -0.861 |
| HMSVTVPDVKRMQAEDAKALLSRYRLRSEVIDSVYVDNIPRGAVVEQIPRENSSVKENRIVFLTINSN | -0.363 |
| HMSVTYRYSYVYNGNTYSDGWSVRRAIENNENKRFGPEPSDLDHEAQKQARVTFWAEHGVEYKEQEVV | -0.879 |
| HMSVYIGVDQAKSIAAEHAGLSNSAVTFSKAKLENDDGMTVYEVEFFYQGTEYDYKIDASTGSILEYDLDR | -1.26 |
| HMSWEDSLLKQAREIIDMYPQKRSAVGPLLHLAQSKDGYISDDSISVISKLVGITEVQLKSVSTFYSMYK | -1.59 |
| HMSWEELLEHLEKAAERGEEVRIAGVTLHDEEDFKRALRWLKEWL | -1.93 |
| HMSYIGEEKAKSIAVSNVKGAGTNNVVKVEFDYDDGRAVYEVKVVYNAMEYEFEIDASNGKILSRDAESIY | -0.309 |
| HMSYKFDSLAIILNKLDGKETVNVSSLSDELEVSARTVHRYIGTLQVAGFPIEYDKTKNSYIFSEGYTL | -0.874 |
| HMSYQFKIKNNAAVEVTVSEKNNLLGSTYGDKATVAAGMEKNVTFYTDKPDVVVDTNGNFTITVHDKEIII | 0.132 |
| HMSYSYIYNYALKVKMDISSTGGKKPYAYYYYDHSYKLAEEILSLSEETESIELQNKYDELKDFYENP | -1.32 |
| HMSYTWHDMYLLAQEYQKEHGNLIIPRNYKGKNGLNLGYWLYKEKLKYRQGKLAPEKIIALEHIGIVWT | -1.21 |
| HMSYYKEMIRLADSIADKAHEGQTDRNGWPYISHPRRVALGARKLVSEMASSTSPDTSLEELKAEVQIVAL | -0.288 |
| HMTAAPEVRVEGLFKGAAVLKIDGQQVMLKKGRSHSSGVTLVDANAHRAIVEIDGQRHELALHMA | 0.0499 |
| HMTADIRFLNSRKFYIYKVEKGETLFSISQKFNIPQEEIIQFNKDINQQGLKAKTKLWVPAYSWL | -3.38 |
| HMTAGTGIAYSEFRSKVQEGQVKDVAIAPDRITGTLSSGQKFSTVPVNDPGLPKMLDDFNVKYSGQA | 0.104 |
| HMTAIWKTITATLTHDIATGKYAPGDRLPTEAQLAARFGVNRHTVRRAISDMNESGLTYSRRGAGVFVAQ | -2.59 |
| HMTALAVGDRVKMDKSATIYGTMRKFAAWVYATKLYVRGIDGNRVVVSTLKSGAITGAVDKKHLTK | -1.12 |
| HMTAMDTQQKKLIIMYHDIHRLRNVEHFTIQRIADHLLLNFRTVKKFLEMTQEEFDKFSENRW | -3.01 |
| HMTANPSTEEIMARVEAIPLPIKRLPPGQIVQAQTVAATVLRSNPGLDLAKAWKLAYATVTGQE | -0.0416 |
| HMTANTQVENIRLELQRYMDEHGISQVTVARGIGKTHPVISQFLNNKYPGDVEEVARAIESWLTKQHEKAA | -0.0876 |
| HMTAPELGIRQDGNTLVIFWPSSVTGYVLKSADAVDTPPASWTSVTHTTVGDEHRAEITPTGNSRFFRLV | -0.267 |

| Sequence | soluble fraction (log2) |
| --- | --- |
| HMTAPQAQDYARVPDVLGLDMRESAQALRLDGFEMNAQGDGLAARQSPIGGSYAPEGTQVLVTFEM | 0.102 |
| HMTAQLAAQERTHALDMFMGGYKFSSKPAENGVRAEFEKKNFTLEDGKFLGGDEFMKSLMENDDYKGAFV | 0.375 |
| HMTASKSTVSTPEKVVYHIVFPKETKYSIAKKYGITIEELEKRNPEIIPSLSVGQKLVIKGTAPK | -0.00327 |
| HMTATDRQLQLIAYTAARLMAEQGIADFNAAKRKAIQTLGLPNNAKLPGNADVEAQLRAYQRIF | -0.133 |
| HMTATKDLPFSTFITEVEKGNITSVDIKGNQIEGTFSNGAKFKTYSPNYPNLVERLADKGVAISAGPS | 0.047 |
| HMTAVPADVETVTGFTALDRAGLDTLLARLGLAMDLEDLSFLQAYFRDTERRDPTLTEIRVVDTYWSDH | -1.38 |
| HMTDAEQHEALLFKQVVDGLPQTLRDTFVLSRHAGMTYAEISAHTGTPIKTVESRMAKALELIAQRMR | -0.67 |
| HMTDDALIGKTAQVTVAIKPGSVGQITARVGDERVERLARASADAEIAAGSLVTIKSIAGDSVIVAPE | 0.144 |
| HMTDDPGLSRAENRELQTLLLDRGHDIGQPDGLIGAKTRAAIRAEQSRLNMPVNGRGGQKLLRALRL | 0.372 |
| HMTDFLKTRIDTLGLSTRTLNALSEANVRTIGGIARKKQEDLLEIDGIGEKGIQEIKKMLGEYGITL | -0.126 |
| HMTDFSDLSFKYNSEEKDVLNSINLKINGGEMTSLVGHSGAGKTTILNLIPRFYEKSKGDISIDGQSIY | -0.0832 |
| HMTDGLTVPMQGVVIRYKAKKGDKVAVGDAVAVLEAMKMEQNIFANKSGTIKEIYIKEGTTVTPGDVLMSI | -0.0052 |
| HMTDLNDTQIKILELLSADASLSAAKMAGQLGIAGRNVEANIKKLKEKGILIRHGSPKSGYWEIVN | -0.0982 |
| HMTDNSTTTIRNLKIEWLLEEIRNAVRTGVSVDAAVERISNNPFVKPPEDLLNEARIIFLQNAGQI | -0.166 |
| HMTDPVLYEERDDIAIITINRPEKKNTLTDAVIQGIADGIDAATKSADVVAVVLRGAGDTLTAGYDLTA | -0.132 |
| HMTDSDTQDIDVGELRVGHFVFLDLSWIRHPFPLSSFKIQSAEQIKTIRSLGLRRIRYSPGRSGP | -1.18 |
| HMTDSSEILEAALKEAEDAAHEVLNGTFSVQLEPQKAYIRRLQHMLIDRMNLSSTSKGKEPYRSLLVYR | -1.11 |
| HMTDTDVLSSRLSALSSGRTSAVRLRDGVLSLVLDVGGLSIEARKAMTTAIESTARATPGVEAVRIAET | -0.0141 |
| HMTDTSFPRLGAPEEELLSFLAKWEIDAEDAHYTKFSLYYQSTGKMMRDWKATWRAWKERQSELNAQR | -1.68 |
| HMTDVGLEAAKAAALKHAGLSADQVTGLTAKLDWDDGQRVYEVDFWQGSTEYEYEINADGTVRQYESEAH | 0.228 |
| HMTDVRFIDIPVTEHHPWNGMKVRDLQLPPGTLLVFLSHPGEKNTVPHGETVLRSGDVLVLGATAYTGQ | -0.0558 |
| HMTDVRFISIPIQKEHPWNRKLVSELNLPPGTLLVFLRRTGENIVPNGKTMIQEGDVLVLGASAYR | -0.295 |
| HMTEALEFTVEDLRMAGLVNSSFSRRRRELFSEKLGIGYGNGKSLLKKLNGYGITREEFNGAIQSLSD | -0.747 |
| HMTEIILTARSGRHAVRHRLEGLGYTLTPEELERVHQRFLAVADAKKEVFDEDLHALMADERGT | 0.0349 |
| HMTEKMILKWKEALERMNDDFTTKDWLNVVIHEMGKSERTAYGWLSDMKRSGIIKDLGYGSWLKVLE | -0.738 |

| Sequence | soluble fraction (log2) |
| --- | --- |
| HMTEKPTREAHILDQLARDGGVLVAALSRELGVSEVTIRSDLRDLEAAGLLQRTHGGAQASSFQTVL | -0.0142 |
| HMTELNNTQRAAVLLLALDEDSAAEVFKHLSAREVQEVSQEMAKLGNISHDQMRQVLDDFYDESEQF | -0.0259 |
| HMTELPLTPRSKRILEMSALEARRLNHSYIGTEHLLMAIIRDGDGVAAKILESLGVNLPNFYTDTVRSIE | -0.121 |
| HMTELSLSEQAYQQLRRMIVRLDFAPGDVLREEALQEALGMSRTPIREALQRLAREHFVTVIPRRGMFVS | -2.28 |
| HMTELVIPDYFSKALAKNKKAKQVFEAFAYSHRKEYLQWITEAKTEETRNKRMATAIEWIAEGKGRNWKYA | -1.69 |
| HMTEPIESVTTIAGRRIPYRLVRSLRARRMRMTIKESQVTVTLPRGVPLGEAERFLQQNAAWLFKQLDKP | -2.22 |
| HMTESIHVGSKVTINNNAKRWATGQNIYSGVKGKTYTVIQMNGSRLLLDKVISWINKGDVHLPGS | -1.64 |
| HMTESIKRDEAIRLNNGRIYTLDAAKIGTNEYEVMLFNPRTGEEIDSAKTSTEADAILQFDRLRRMYHR | 0.1 |
| HMTETELYDEVNRLIGLHLSERDRMILIMRDRDEFEIDAIAARTGLSEGNIRLILSRARRTVREAYRNNI | -3.74 |
| HMTETNSVTINERLTLYRRSRSGRWQARVKLNTGEWHRFSTGTADFEKAKESAHRELHNVGFRAENNLPQ | -0.598 |
| HMTFDWAAYEISEKEIRVMSLVAEGFSNKEIAQELFLSEGTVRNYISNILEKLGLRDRTQLAVHYLKAV | -1.28 |
| HMTFENMFIENSGETLDREFLVENLRGISWQSYDRSVDVLVSRLRGKLGETPNNTRFIKTIHGVGYKFIGE | -0.316 |
| HMTFGENLIRLRRQQGLSQEQLGMRIGVSRQTVSKWELNDTTPEMEKLIALADLFGLSLDELTGRV | -0.115 |
| HMTFNLDVDGDDQVTALGDGLMIIRKLFGATFAGDALTNKAISPDATRTTDEIHAYIEKGITSGVLD | -0.268 |
| HMTFPAILRELLEKHPQTGKRTTLKELGEAVGTRQQSISLYRNGDTQPSPDILVRIAAFFGVSVDYLL | -0.419 |
| HMTFPYTSLKDAPKNMKEIDGVPLTLDQVNQIAKVADSIGVSKEKNGYAIAKSQFKKSHHIENNRWVKNK | 0.0239 |
| HMTFVHTQIEATKEWIISHPLDKHPAVAVVDSAGSIVIGEVDYISKSIVRLRFTAEFSGKAYL | -0.598 |
| HMTGAEGKLARYLLTVPSGEPLRLSATDLAKRLGISRASLYRAFQALEDARLIRREGKSMYVLDPAGLEGV | -0.289 |
| HMTGENWAERSRQLAAAGLLVLGKEAQEKIASLPNLIPLIEAAAASDTRLLNAQTIDELLSFVPTEETI | -0.05 |
| HMTGESVPAPLSGTIFKILVAPGEQVEEGQTVIILEAMKMETEISAPRSGVVGAINIKEGDSVQVGQSLFT | 0.0706 |
| HMTGIKISVDRLQIGNYVKLPLNWKDHPFLFSSFAIKSQEEIDLIRRLGLKQVIMFPDKSSMPPKPV | -1.33 |
| HMTGLSNFEFNQIKLDLMHELTQTPLRLTDLVNRITSFENEKTITVIRFLVDEGILLLKDDTLSVAKID | -0.542 |
| HMTGMEAAEFGKRIMKLRKQKGMTQSKLAEQINVSNKAISRWETGEGFPEITLLKPLAKALGTTVDELFGE | -0.204 |
| HMTGMEKFLTIPSIRESTAAFEREYLIHYLDENAWQVSKTAAAIGIERTTLYKKMKQLGIVPIEE | -2.07 |
| HMTGNWRQMHKVKSKETIYGIAKEYGITVDELTKANPGMEAPGYTLKKGDYIFIPYATADANV | 0.399 |
